The source of these data is FireProtDB (doi:10.1111/j.1432-1033.1988.tb14214.x).

B1: Protein S100-G, P02633 (parent)
chain: MSAKKSPEELKGIFEKYAAKEGDPNQLSKEELKLLLQTEFPSLLKGPSTLDELFEELDKNGDGEVSFEEFQVLVKKISQ

In the data set the parent is B1. Particulars: Bos taurus; pH 7.1; 25 °C; Urea; CD; PIPES 20 mM; reversible: yes; structure 1IGV; whole UniProt chain shown.

For Y17F, the “ddG of mutation (higher = less stable)” value is 1.19 kcal/mol, the denaturant m value was 0.89 kcal/mol/M, the “denaturant midpoint (higher = more stable)” value (“denaturant midpoint” for short) worked out at 4.1 M and the unfolding free energy was 3.59 kcal/mol.

Take P24G: the “ddG of mutation (higher = less stable)” value stood at 1.19 kcal/mol, the denaturant m value is 0.79 kcal/mol/M, the “denaturant midpoint” value is 4.7 M and the unfolding free energy stood at 3.59 kcal/mol.

Regarding E21Q, the “ddG of mutation (higher = less stable)” value is -0.48 kcal/mol, the denaturant m value turned out to be 0.91 kcal/mol/M, the “denaturant midpoint” value was determined as 5.6 M and the unfolding free energy is 5.26 kcal/mol.
